Measured values: patent US11911397B2, “Anordrin compositions and methods for treating diseases” (Zhejiang Jiachi Development Pharmaceuticals LTD, priority 2014, dated 2024)

Test system: MDA-MB-231 cells
Assay: MDA-MB-231 cell migration (matrixgel / transwell)
Assay type: cell-based
Details: 10 nM E2 or 10 ng/ml EGF alone, 20 hours
Protocol: As anordrin has been reported as an anti-angiogenic agent resulting in inhibition of cell migration and invasion (16), we studied its ability to modulate MDA-MB-231 cell migration using matrixgel. […] After 20 hours migrated cells were stained and quantified using a plate reader at 560 nm.
Transwell and flow cytometry assay: Cells were starved for 48 hours in phenol red free medium containing 5% charcoal-stripped FBS, and then changed into phenol red free medium for an additional 24 hours. Transwell was performed following the Chemicon kit instructions (CAT #ECM551). Briefly, cells were trypsinized, washed using 1×DPBS containing Ca2+ and Mg2+ (Sigma) and resuspensed in serum and phenol red free medium at a cell density of 0.5×10^6 cells/ml.

B1: EGF: EGF, binds to Her1; used at 10 ng/ml as stimulus (protein, UniProt P01133 23-1207, looked up)
Pro-epidermal growth factor: PQHWSCPEGTLAGNGNSTCVGPAPFLIFSHGNSIFRIDTEGTNYEQLVVDAGVSVIMDFHYNEKRIYWVDLERQLLQRVFLNGSRQERVCNIEKNVSGMAINWINEEVIWSNQQEGIITVTDMKGNNSHILLSALKYPANVAVDPVERFIFWSSEVAGSLYRADLDGVGVKALLETSEKITAVSLDVLDKRLFWIQYNREGSNSLICSCDYDGGSVHISKHPTQHNLFAMSLFGDRIFYSTWKMKTIWIANKHTGKDMVRINLHSSFVPLGELKVVHPLAQPKAEDDTWEPEQKLCKLRKGNCSSTVCGQDLQSHLCMCAEGYALSRDRKYCEDVNECAFWNHGCTLGCKNTPGSYYCTCPVGFVLLPDGKRCHQLVSCPRNVSECSHDCVLTSEGPLCFCPEGSVLERDGKTCSGCSSPDNGGCSQLCVPLSPVSWECDCFPGYDLQLDEKSCAASGPQPFLLFANSQDIRHMHFDGTDYGTLLSQQMGMVYALDHDPVENKIYFAHTALKWIERANMDGSQRERLIEEGVDVPEGLAVDWIGRRFYWTDRGKSLIGRSDLNGKRSKIITKENISQPRGIAVHPMAKRLFWTDTGINPRIESSSLQGLGRLVIASSDLIWPSGITIDFLTDKLYWCDAKQSVIEMANLDGSKRRRLTQNDVGHPFAVAVFEDYVWFSDWAMPSVMRVNKRTGKDRVRLQGSMLKPSSLVVVHPLAKPGADPCLYQNGGCEHICKKRLGTAWCSCREGFMKASDGKTCLALDGHQLLAGGEVDLKNQVTPLDILSKTRVSEDNITESQHMLVAEIMVSDQDDCAPVGCSMYARCISEGEDATCQCLKGFAGDGKLCSDIDECEMGVPVCPPASSKCINTEGGYVCRCSEGYQGDGIHCLDIDECQLGEHSCGENASCTNTEGGYTCMCAGRLSEPGLICPDSTPPPHLREDDHHYSVRNSDSECPLSHDGYCLHDGVCMYIEALDKYACNCVVGYIGERCQYRDLKWWELRHAGHGQQQKVIVVAVCVVVLVMLLLLSLWGAHYYRTQKLLSKNPKNPYEESSRDVRSRRPADTEDGMSSCPQPWFVVIKEHQDLKNGGQPVAGEDGQAADGSMQPTSWRQEPQLCGMGTEQGCWIPVSSDKGSCPQVMERSFHMPSYGTQTLEGGVEKPHSLLSANPLWQQRALDPPHQMELTQ
modifications: Pro-epidermal growth factor
notes: used at 10 ng/ml as stimulus
MDA-MB-231 cell migration: slightly enhanced
